From patent US20230065153A1 (HIROSHIMA UNIVERSITY, published 2023)

What was measured:
human integrin α10 = target: T1, human integrin α10 (human, UniProt O75578 23-1167); test: FACS on human integrin α10 introduced CHO cells
T1 construct: whole, on cells
T1 sequence (looked up): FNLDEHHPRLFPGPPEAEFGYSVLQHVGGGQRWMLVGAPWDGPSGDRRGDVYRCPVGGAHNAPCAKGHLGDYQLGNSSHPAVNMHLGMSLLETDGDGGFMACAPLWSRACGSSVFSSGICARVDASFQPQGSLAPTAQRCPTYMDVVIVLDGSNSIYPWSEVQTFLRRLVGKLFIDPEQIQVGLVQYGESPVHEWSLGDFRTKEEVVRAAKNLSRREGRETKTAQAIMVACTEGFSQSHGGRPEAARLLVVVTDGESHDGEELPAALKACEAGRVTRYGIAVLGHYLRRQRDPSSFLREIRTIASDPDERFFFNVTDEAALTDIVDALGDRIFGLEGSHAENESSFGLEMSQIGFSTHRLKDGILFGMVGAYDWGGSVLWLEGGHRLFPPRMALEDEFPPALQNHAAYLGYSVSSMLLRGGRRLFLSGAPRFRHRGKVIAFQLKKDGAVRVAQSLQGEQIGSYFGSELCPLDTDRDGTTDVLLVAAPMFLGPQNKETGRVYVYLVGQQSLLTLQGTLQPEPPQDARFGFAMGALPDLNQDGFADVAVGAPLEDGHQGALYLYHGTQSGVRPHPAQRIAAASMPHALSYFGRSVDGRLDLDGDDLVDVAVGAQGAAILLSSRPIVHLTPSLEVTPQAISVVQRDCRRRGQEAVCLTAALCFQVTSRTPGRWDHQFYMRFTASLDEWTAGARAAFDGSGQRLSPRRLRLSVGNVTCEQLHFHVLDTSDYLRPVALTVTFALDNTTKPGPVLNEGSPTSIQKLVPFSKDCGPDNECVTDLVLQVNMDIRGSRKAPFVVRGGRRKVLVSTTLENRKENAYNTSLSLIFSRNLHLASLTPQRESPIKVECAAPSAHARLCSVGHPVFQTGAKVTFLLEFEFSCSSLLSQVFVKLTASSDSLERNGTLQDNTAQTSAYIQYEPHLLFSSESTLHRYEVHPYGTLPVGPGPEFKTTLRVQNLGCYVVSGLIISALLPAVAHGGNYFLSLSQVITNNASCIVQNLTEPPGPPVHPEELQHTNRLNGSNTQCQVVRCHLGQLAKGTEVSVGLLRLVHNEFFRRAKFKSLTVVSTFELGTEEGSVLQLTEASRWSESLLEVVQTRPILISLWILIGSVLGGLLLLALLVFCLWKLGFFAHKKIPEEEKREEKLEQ
Procedure: (§1) Reactivity (specificity) with respect to α11 in the antibody which has been converted into IgG was analyzed based on presence or absence of reactivity with respect to other collagen binding integrins α1, α2, and α10. First, reactivity of the antibody with respect to the CHO cell and the human integrin α11 introduced CHO cell was analyzed by FACS. Subsequently, reactivity of the antibody with respect to a human colorectal carcinoma cell line (SW480 cell: cell line expressing endogenous α1 and α2) and a human integrin α10 introduced CHO cell was analyzed by FACS. The reaction conditions of FACS using the IgG antibody are as follows. That is, the antibody as a primary antibody was added to a cell at a concentration of 5 μg/ml to react with the cell on ice for 25 minutes. After washing, PE labeled anti-mouse IgG antibody as a secondary antibody was added to the cell at a concentration of 2 μg/ml to react with the cell on ice for 15 minutes. The subsequent FACS processes were carried out under the same conditions.

[1] = target: T2, integrin α1 (endogenous on human colorectal carcinoma SW480 cells) (human, UniProt P56199 29-1179); test: FACS on SW480 cells expressing endogenous α1 and α2
T2 construct: whole, on cells
T2 sequence (looked up): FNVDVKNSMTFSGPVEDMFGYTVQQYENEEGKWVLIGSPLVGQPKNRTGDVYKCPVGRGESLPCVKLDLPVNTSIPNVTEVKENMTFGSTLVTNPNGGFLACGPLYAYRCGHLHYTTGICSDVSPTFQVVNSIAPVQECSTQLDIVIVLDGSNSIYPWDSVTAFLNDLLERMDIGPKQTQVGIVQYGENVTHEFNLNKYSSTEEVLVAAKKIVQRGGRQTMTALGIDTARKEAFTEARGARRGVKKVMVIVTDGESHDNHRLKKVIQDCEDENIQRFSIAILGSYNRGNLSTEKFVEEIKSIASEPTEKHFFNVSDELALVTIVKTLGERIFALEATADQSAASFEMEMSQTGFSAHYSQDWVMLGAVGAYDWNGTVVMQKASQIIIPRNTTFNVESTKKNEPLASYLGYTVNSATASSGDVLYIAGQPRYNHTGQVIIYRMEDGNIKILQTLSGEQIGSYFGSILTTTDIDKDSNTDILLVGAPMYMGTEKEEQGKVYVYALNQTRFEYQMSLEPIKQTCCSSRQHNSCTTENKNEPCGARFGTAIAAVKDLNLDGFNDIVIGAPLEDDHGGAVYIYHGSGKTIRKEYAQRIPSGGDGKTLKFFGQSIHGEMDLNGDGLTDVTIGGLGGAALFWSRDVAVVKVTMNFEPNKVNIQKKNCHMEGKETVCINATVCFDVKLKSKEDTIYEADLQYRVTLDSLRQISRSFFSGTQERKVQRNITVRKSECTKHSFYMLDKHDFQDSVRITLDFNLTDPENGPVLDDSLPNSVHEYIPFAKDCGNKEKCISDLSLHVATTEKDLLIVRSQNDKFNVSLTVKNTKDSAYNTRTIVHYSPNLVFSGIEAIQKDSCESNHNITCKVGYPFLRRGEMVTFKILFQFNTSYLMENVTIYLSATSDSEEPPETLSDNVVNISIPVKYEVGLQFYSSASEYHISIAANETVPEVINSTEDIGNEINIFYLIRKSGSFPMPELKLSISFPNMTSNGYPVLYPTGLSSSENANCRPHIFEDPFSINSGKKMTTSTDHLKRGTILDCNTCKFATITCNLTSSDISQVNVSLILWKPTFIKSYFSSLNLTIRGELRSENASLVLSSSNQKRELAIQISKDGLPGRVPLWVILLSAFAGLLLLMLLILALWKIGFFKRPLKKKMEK
Procedure: as §1

[2] = target: T3, integrin α2 (endogenous on human colorectal carcinoma SW480 cells) (human, UniProt P17301 30-1181); test: as above
T3 construct: whole, on cells
T3 sequence (looked up): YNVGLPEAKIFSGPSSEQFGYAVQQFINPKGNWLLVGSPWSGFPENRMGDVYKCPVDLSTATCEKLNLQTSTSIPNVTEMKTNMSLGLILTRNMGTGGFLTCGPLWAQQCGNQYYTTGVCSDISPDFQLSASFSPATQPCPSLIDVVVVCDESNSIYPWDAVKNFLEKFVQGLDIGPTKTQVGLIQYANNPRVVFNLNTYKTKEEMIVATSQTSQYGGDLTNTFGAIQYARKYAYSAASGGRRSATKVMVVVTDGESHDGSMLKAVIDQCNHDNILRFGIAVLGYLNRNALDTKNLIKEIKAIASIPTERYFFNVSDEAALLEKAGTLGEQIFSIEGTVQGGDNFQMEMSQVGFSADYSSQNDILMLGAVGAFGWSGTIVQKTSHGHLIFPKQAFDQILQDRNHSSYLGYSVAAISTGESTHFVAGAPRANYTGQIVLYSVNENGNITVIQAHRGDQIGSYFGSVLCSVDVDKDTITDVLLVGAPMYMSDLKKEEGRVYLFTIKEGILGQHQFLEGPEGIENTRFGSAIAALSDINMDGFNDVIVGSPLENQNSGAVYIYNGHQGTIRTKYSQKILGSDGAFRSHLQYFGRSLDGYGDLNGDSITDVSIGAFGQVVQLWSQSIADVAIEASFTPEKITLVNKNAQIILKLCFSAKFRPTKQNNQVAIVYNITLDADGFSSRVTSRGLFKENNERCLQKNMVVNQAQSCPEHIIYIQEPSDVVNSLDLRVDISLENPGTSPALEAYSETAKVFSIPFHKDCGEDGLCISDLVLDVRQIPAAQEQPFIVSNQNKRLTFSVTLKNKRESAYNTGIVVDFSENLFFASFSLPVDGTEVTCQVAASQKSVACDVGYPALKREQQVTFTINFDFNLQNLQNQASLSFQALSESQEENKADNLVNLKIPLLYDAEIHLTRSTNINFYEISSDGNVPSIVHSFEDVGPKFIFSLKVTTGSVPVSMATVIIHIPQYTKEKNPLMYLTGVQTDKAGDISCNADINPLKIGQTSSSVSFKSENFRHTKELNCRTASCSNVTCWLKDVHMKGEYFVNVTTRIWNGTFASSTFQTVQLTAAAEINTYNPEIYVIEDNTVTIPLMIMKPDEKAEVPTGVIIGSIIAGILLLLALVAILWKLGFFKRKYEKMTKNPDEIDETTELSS
Procedure: as §1

- binding result (human integrin α10): no binding (tested: 5 µg/ml)
- binding result [1]: no binding (tested: 5 µg/ml)
- binding result [2]: no binding (tested: 5 µg/ml)
B1: wild-type #33 IgG (anti-integrin α11 monoclonal antibody, chicken-mouse chimeric IgG1) (antibody, V domains shown)
VH: AVTLDESGGGLQTPGGALSLVCKGSGFTFSSYGMQWVRQAPGRGLEWVAGIDDDGSFTLYGAAVDGRATISRDNGQTTVRLQLSDLRAEDTATYFCAKGGYGYCWYGDAACIDAWGHGTEVIVSS
VL: AVTQPSSVSANPGETVKITCSGGSDSWYGWYQQKSPGSAPVTVIYSNNQRPSNIPSRFSGSTSGSTSTLTITGVQADDEAVYFCGSRDSSYDGIFGAGTTLTVLK
notes: Chicken VH linked to a mouse IgG1 constant region and chicken VL linked to a mouse Igκ region; His-tagged at the C-terminal; also called the antibody
